{"source": "patent US7947279B2", "about": "“Peptide having hydrolase activity” (The Trustees of Columbia University in the City of New York, priority 2005, dated 2011)", "molecules": {"B1": {"name": "TAT-HA-Uch-L1(C90S): mutant TAT-HA-Uch-L1 construct, C90S (hydrolase site), made by site-directed mutagenesis (protein, UniProt P09936 1-220, looked up, variant C90S)", "Ubiquitin carboxyl-terminal …": "MQLKPMEINPEMLNKVLSRLGVAGQWRFVDVLGLEEESLGSVPAPACALLLLFPLTAQHENFRKKQIEELKGQEVSPKVYFMKQTIGNSSGTIGLIHAVANNQDKLGFEDGSVLKQFLSETEKMSPEDRAKCFEKNEAIQAAHDAVAQEGQCRVDDKVNFHFILFNNVDGHLYELDGRMPFPVNHGASSEDTLLKDAAKVCREFTEREQGEVRFSAVALC", "modifications": "fused to HIV TAT transduction peptide and HA tag", "notes": "mutant TAT-HA-Uch-L1 construct, C90S (hydrolase site), made by site-directed mutagenesis"}}, "key": {"[1]": {"tested_on": "SY5Y neuroblastoma cells transfected with a degron CL1-GFP expression vector", "assay": "Proteasome reporter assay (GFP^u)", "type": "cell-based, human", "settings": "substance alone", "procedure": "Proteasome reporter assays. In this cell line, human neuroblastoma SH-SY5Y cells were permanently transfected with reporter construct consisting of green fluorescent protein (GFP) conjugated at its C-terminus to a short degron sequence (CL-1) (Gilon et al., 1998). […] The SY5Y-GFP^u cells were grown in 1×DMEM (Invitrogen) supplemented with 15% fetal bovine serum (JRH), 1× penicillin/streptomycin (Gibco). After indicated treatments, GFP^u concentrations were assayed by densitometric analysis of immunoblots of total protein extracts (10 ug/lane) using monoclonal GFP antibodies (Santa Cruz Biotechnology) and visualized with HRP-conjugated secondary antibodies and ECL (Pierce). Loading equalization was normalized by probing blots with anti-ERK antibodies (Santa Cruz Biotechnology)."}, "[2]": {"tested_on": "CA1-LTP in hippocampal slices", "assay": "CA1-LTP in hippocampal slices (theta-burst)", "type": "cell-based, mouse", "settings": "for Aβ-induced impairment of CA1-LTP (words): fusion protein 20 nM 1 hr, then plus Aβ 200 nM 20 min; for LTP in slices not treated with Aβ (words): fusion protein 20 nM, 1 hr, WT slices, 3 theta-burst trains"}, "phospho-CREB at Ser-133": {"tested_on": "phospho-CREB at Ser-133", "assay": "Phospho-CREB (Ser-133) Western blot in hippocampal cultures", "type": "cell-based, rat", "procedure": "Western Blotting: Protein levels were assessed using standard procedures. Protein extraction was performed using buffer with and without detergent. For the extraction of protein using detergent, hippocampal tissues and cultured hippocampal neurons (5 DIV) were homogenized in RIPA buffer (50 mM Tris-HCl pH 7.4, 1% Triton X-100, 1% sodium deoxycholate, 0.1% SDS, 150 mM sodium chloride, 10 mM sodium fluoride, 30 mM sodium pyrophosphate, 50 mM sodium orthovanadate) containing 1× complete protease inhibitor (Roche) and 1 mM phenylmethylsulfonyl fluoride (PMSF). For extraction of proteins without detergent, hippocampal extracts were homogenized with disposable dounce homogenizers in buffer A, containing 10 mM HEPES pH 7.3, 300 mM sucrose, protease 1× complete protease inhibitor (Roche) and PMSF. After centrifugation at 10,000×g supernatant proteins were resolved on a 8% or 4-20% gradient Tris-Glycine gel, transferred onto PVDF or nitrocellulose membrane and blocked in 5% skim milk in PBS-Tween 0.1% (PBS-T). Membranes were probed with primary antibodies, and after washing with PBS-T incubated with an appropriate HRP-conjugated secondary antibody. The following antibodies were used: mouse monoclonal anti-ubiquitin (Chemicon), rabbit polyclonal anti-pCREB (Upstate Biotech.), rabbit polyclonal anti-PKA-RIIα (Santa Cruz Biotech. Inc), mouse monoclonal anti-Uch-L1 (Novocastra), monoclonal mouse anti-HA (Santa Cruz Biotech. Inc), and anti-PKA IIα. Detection was performed using HRP-conjugated secondary antibodies (Pierce, Rockford, Ill.). To control loading and transfer, protein immunoreactivities were normalized against total extracellular signal-regulated protein kinases (ERK1/2) levels with a rabbit analyzed using a rabbit polyclonal anti-ERK1/2 antibody (Cell Signaling Technology, Inc). NIH IMAGE was used to analyze the scanned blots and quantify the intensity of the protein signals.\nPreparation of Cell Cultures. Hippocampal cell cultures were prepared as previously described (Vitolo et al., 2002). In cell culture experiments fetuses at embryonic day 18 from timed pregnant Sprague-Dawley rats (Taconic Farms) were used. Fetuses were sacrificed and the hippocampi removed. Neurons were then dissociated, plated on 6 well-plates coated with poly-L-lysine and maintained in a defined serum-free medium containing minimum essential medium supplemented with N-2, glucose, albumin, pyruvic acid, antibiotics and antimycotics. […] 5 DIV cells were used for the experiments."}, "mice (WT and APP/PS1)": {"tested_on": "mice (WT and APP/PS1)", "assay": "Contextual and cued fear conditioning", "type": "in vivo, mouse", "settings": "0.02-0.04 g/kg i.p.; 1, 7, 14 and 21 days after training", "procedure": "Behavioral Studies: Fear conditioning was performed in a conditioning chamber as previously described (Bourtchuladze et al., 1994; Gong et al., 2004). For contextual and cued fear conditioning mice were placed in the conditioning chamber for 2 min before the onset of a discrete tone (CS) (a 30 sec sound at 2800 Hz and 85 dB). In the last 2 sec of the CS, mice were given a foot shock (US) of 0.50 mA for 2 sec through the bars of the floor. After the CS/US pairing, the mice were left in the conditioning chamber for another 30 sec and then placed back in their home cages. Freezing behavior, defined as the absence of all movement except for that necessitated by breathing, was scored using Freezeview software. To evaluate contextual fear learning, freezing was measured for 5 min in the chamber in which the mice were trained 24 hrs after training. To evaluate cued fear conditioning, following contextual testing, the mice were placed in a novel context (triangular cage with smooth flat floor and with vanilla odorant) for 2 min (pre-CS test), after which they were exposed to the CS for 3 min (CS test), and freezing was measured. To evaluate the contextual fear over time, mice were placed for 5 min in the chamber in which the mice were trained 7- 14- 21-days after training. Sensory perception of the shock was determined through threshold assessment. Each animal was placed individually into the conditioning chamber. […] Animal behavior was evaluated for the first visible response to the shock (flinch), the first extreme motor response (run/jump), and the first vocalized distress (scream). Threshold to flinching, jumping, and screaming was quantified for each animal by averaging of the shock intensity at which each animal manifested a behavioral response of that type to the foot shock. Visual, motor, and motivation skills were also tested with visible platform training by measuring the time and the speed to reach a visible platform placed within a pool filled with water (Gong et al., 2004). Both time to reach the platform and swimming speed were recorded and analyzed with a video tracking system (HVS-2020, HVS Image, UK). No difference was observed among different groups of mice in the experiments in which fear conditioning was tested both in the presence of LDN and TAT fusion proteins. To decide the time of administration of LDN, experiments were performed in which the inhibitor was injected intra-peritoneally at different intervals (4 hrs before, 1 hr before, 1 hr after and 4 hrs after) from the electric shock. During the training phase, no difference was found in the freezing of LDN- or vehicle-injected mice."}, "ubiquitin-AMC": {"tested_on": "ubiquitin-AMC", "assay": "Hydrolysis of ubiquitin-AMC by TAT fusion proteins", "type": "biochemical", "settings": "20 nM TAT fusion proteins", "procedure": "Measurement of Hydrolase Activity: The hydrolase assay was performed as previously described (Nishikawa et al., 2003) with slight modifications. Briefly, hippocampal tissue was treated with tissue protein extraction reagent (T-PER; Pierce) containing freshly added EDTA-free protease inhibitors. Homogenate was centrifuged at 10,000 rpm for 5 min. Protein concentration was measured in the supernatant using the BCA protein assay reagent. In some experiments hydrolysis was initiated by adding 10 μl of 20 nM Uch-L1 or Uch-L3 (Boston Biochem). The hydrolase assay was performed using fluorogenic ubiquitin-7-amino-4-methylcoumarin (ubiquitin-AMC) (Boston Biochem) as a substrate. The substrate was diluted in assay buffer (50 mM Tris-HCL, 0.5 mM EDTA, 5 mM dithiothreitol and 0.1 mg/ml ovalbumin, pH 7.6). […] The reaction was monitored using a fluorescence spectrophotometer (CytoFluor Series 4000, ABI Inc) at 25° C. The free AMC fluorophore was excited at 380 nm and measured at 460 nm. Hydrolase activity was expressed as relative fluorescence intensity/min (Dang et al., 1998). In some experiments, hydrolysis was also measured on the soluble and insoluble fractions (FIG. 28D). In a group of experiments hydrolysis was measured by mixing ubiquitin-AMC with 20 nM TAT fusion proteins (FIG. 27C). […]"}}, "note": "Entries after “also recorded” stand apart in the source; their conditions may differ."}
{"molecule": "B1", "values": [{"measurement": "GFP^u levels", "setting": "[1]", "result": "increase in GFP^u"}, {"measurement": "Aβ-induced impairment of CA1-LTP (words)", "setting": "[2]", "result": "failed to protect against LTP suppression; also recorded: failed to reverse"}, {"measurement": "Aβ-induced impairment of CA1-LTP (words)", "setting": "[2]; listed as TAT-HA-Uch-L1(C90S) peptide", "result": "did not protect against LTP suppression"}, {"measurement": "LTP in slices not treated with Aβ (words)", "setting": "[2]", "result": "severely impaired potentiation"}, {"measurement": "LTP in slices not treated with Aβ (words)", "setting": "[2]; listed as Mutant (C90S) TAT-Uch-L1 fusion protein", "result": "reduces LTP"}, {"measurement": "LTP in slices not treated with Aβ (words)", "setting": "[2]; listed as mutant (C90S) TAT-Uch-L1", "result": "dramatically reduced LTP"}, {"measurement": "amounts of potentiation", "setting": "[2]; fusion protein alone, no Aβ", "result": "152.38±10.90", "unit": "%"}, {"measurement": "decrease in potentiation compared to vehicle or TAT-HA-iUch-L1", "setting": "[2]; fusion protein alone, no Aβ", "result": "~60", "unit": "%"}, {"measurement": "baseline transmission in slices without tetanic stimulation", "setting": "[2]; non-tetanized slices", "result": "Neither TAT-HA-Uch-L1(C90S) nor TAT-HA-Uch-L1(S18Y) affected baseline; also recorded: did not affect basal transmission"}, {"measurement": "glutamate-induced increase in CREB phosphorylation", "setting": "phospho-CREB at Ser-133; cultures not treated with Aβ", "result": "blocked the glutamate-induced increase in CREB phosphorylation"}, {"measurement": "effect of Aβ on glutamate-induced CREB phosphorylation (words)", "setting": "phospho-CREB at Ser-133; fusion protein 100 nM, 3 μM Aβ 24 hrs, 50 μM glutamate 15 min", "result": "did not allow the enhancement of phospho-CREB"}, {"measurement": "contextual learning in WT mice", "setting": "mice (WT and APP/PS1)", "result": "impaired both contextual learning and its decay; also recorded: worsened contextual conditioning performance"}, {"measurement": "Uch (hydrolase) activity of TAT constructs (words)", "setting": "ubiquitin-AMC", "result": "little or no activity"}, {"measurement": "Uch (hydrolase) activity of TAT constructs (words)", "setting": "ubiquitin-AMC; listed as TAT-HA-Uch-L1 (C90S)", "result": "inactive"}]}
